Assay results taken from the MegaScale stability set (Tsuboyama et al. 2023).

B1: EEHEE_rd3_0130 (parent)
chain: TKIIVNGKTFTAPTEEEAQKIAEKLAKKAGLTVHKKNGTFELK

Variants of: B1
Assay: folding stability dG (cDNA display proteolysis); higher = more stable
Conditions: PBS, room temperature

Folding stability dG [kJ/mol]: each site, then its substitutions
K43: A 2.62, H 3.46, F 4.72, G 1.99, D 1.41, C 7.38, E 2.28
L42: Q 0.0879, F -0.849, P 0.318, S 0.778, G 1.04, T 0.849, I 3.27, N 0.372, H 1.05, Y 0.0795, V 3.31, D 1.15, K 0.611, M 0, E 0.841, W 0.289, R -0.339, A 0.895
K36: S 4, H 3.93, Q 3.35, F 4.13, E 3.14, W 2.98, Y 4.71, C 3.66, V 6.34, L 4.22, I 6.52, D 2, T 4.28, A 2.92, P -4.11, M 3.69, R 3.26, G 2.49, N 4.3
N37: F -1.55, P 0.841, A 1.42, G 2.92, K 1.64, M 0.251, Y -2.33, R -1.36, C 4.4, H -0.285, T -1.36, S -0.728, Q 1.18, I -0.808, L 0.904, D 3.65, V -2, E 2.64
T39: V 5.8, R 3.91, A 6.14, H 5.56, D 3.61, I 6.04, Y 6.56, E 3.26, Q 5.41, W 5.44, G 4.73, C 4.89, L 2.77, M 4.78, F 5.05, P 0.276, N 4.71, K 2.32, S 5.19
F40: H 0.364, L 3.03, P 0.611, N 0.0879, Q 0.347, E 1.05, C 4.11, S 0.167, M 0.912, K -0.163, G -0.159, T -0.146, W 1.13, R -0.255, Y 2.54, A -1.42, D 0.167, V 1.82, I 3.28
K35: Y 6.47, V 3.06, M 2.64, Q 1.72, P -1.79, L 2.77, I 3, G 0.264, N 2.02, W 5.61, S 1.38, R 3.34, E 0.126, T 0.824, D -0.414, A 1.33, H 2.73, F 6.72
H34: Y 4.76, V 5.22, S 2.85, M 2.51, E 2.84, G 0.49, I 5.02, T 4.15, N 1.98, K 2.08, D 0.816, L 3.77, F 4.06, Q 1.86, W 1.69, P -1.9, R 3.01
G38: S -3.36, T -2.14, C 1.24, L -0.833, E 0.138, D 2.04, Y 0.0377, K -0.368, R -1.98, N 2.13, Q -0.908, M -2.18, P 0.297, A -2.6, W -0.197, F 0.209, H -0.448
E41: V 4.56, M 2.08, R -2.64, L 3.78, C 4.97, F 6.08, P 0.117, D -0.845, Q 0.778, Y 7.74, W 6.08, T -0.0167, H 2.34, I 6.2, K -4.09
